In the Human Domainome abundance scans (Beltran et al. 2025):
± gives the uncertainty stated by the source.

B1: POU domain, class 6, transcription factor 2, residues 609 to 663; numbered along this chain, P78424 (parent)
chain: KRRTSFTPQALEILNAHFEKNTHPSGQEMTEIAEKLNYDREVVRVWFCNKRQALK

Variants of: B1
Assay: abundance fitness (aPCA) (normalised: wild type 0, dead -1); higher = more abundant; growth selection in yeast, the domain comes from the species named
Conditions: Homo sapiens

Compared with KRRTSFTPQALEILNAHFEKNTHPSGQEMTEIAEKLNYDRPVVRVWFCNKRQALK, KRRTSFTPQALEILNAHFEKNTHPSGQEMTEIAEKLNYDRNVVRVWFCNKRQALK is higher in abundance fitness: -0.879 ± 0.14 for the first, -0.185 ± 0.23 for the second.

Compared with KRRTSFTPQALEILNAHFEKNTHPSGQEMTEIAEKLNYDRDVVRVWFCNKRQALK, KRRTSFTPQALEILNAHFEKNTHPSGQEMTEIAEKLNYDRVVVRVWFCNKRQALK is lower in abundance fitness: -0.104 ± 0.14 for the first, -0.496 ± 0.071 for the second.

KRRTSFTPQALEILNAHFEKNTHPSGQEMTEIAEKLNYDRGVVRVWFCNKRQALK and KRRTSFTPQALEILNAHFEKNTHPSGQEMTEIAEKLNYDRWVVRVWFCNKRQALK are within error of each other in abundance fitness: -0.186 ± 0.064 for the first, -0.319 ± 0.078 for the second.

KRRTSFTPQALEILNAHFEKNTHPSGQEMTEIAEKLNYDRAVVRVWFCNKRQALK and KRRTSFTPQALEILNAHFEKNTHPSGQEMTEIAEKLNYDRCVVRVWFCNKRQALK are within error of each other in abundance fitness: -0.218 ± 0.066 for the first, -0.119 ± 0.12 for the second.

Going from KRRTSFTPQALEILNAHFEKNTHPSGQEMTEIAEKLNYDRIVVRVWFCNKRQALK to KRRTSFTPQALEILNAHFEKNTHPSGQEMTEIAEKLNYDRTVVRVWFCNKRQALK, the abundance fitness rises from -0.504 ± 0.18 to -0.082 ± 0.093.

KRRTSFTPQALEILNAHFEKNTHPSGQEMTEIAEKLNYDRRVVRVWFCNKRQALK and KRRTSFTPQALEILNAHFEKNTHPSGQEMTEIAEKLNYDRHVVRVWFCNKRQALK are within error of each other in abundance fitness: -0.107 ± 0.067 for the first, -0.29 ± 0.2 for the second.

Compared with KRRTSFTPQALEILNAHFEKNTHPSGQEMTEIAEKLNYDRQVVRVWFCNKRQALK, KRRTSFTPQALEILNAHFEKNTHPSGQEMTEIAEKLNYDRKVVRVWFCNKRQALK is higher in abundance fitness: -0.216 ± 0.099 for the first, 0.021 ± 0.13 for the second.

Going from KRRTSFTPQALEILNAHFEKNTHPSGQEMTEIAEKLNYDRLVVRVWFCNKRQALK to KRRTSFTPQALEILNAHFEKNTHPSGQEMTEIAEKLNYDRMVVRVWFCNKRQALK, the abundance fitness rises from -0.617 ± 0.07 to -0.42 ± 0.12.

Compared with KRRTSFTPQALEILNAHFEKNTHPSGQEMTEIAEKLNYDRFVVRVWFCNKRQALK, KRRTSFTPQALEILNAHFEKNTHPSGQEMTEIAEKLNYDRSVVRVWFCNKRQALK is higher in abundance fitness: -0.743 ± 0.14 for the first, -0.153 ± 0.064 for the second.

Compared with KRRTSFTPQALEILNAHFEKNTHPSGQEMTEIAEKLNYDRYVVRVWFCNKRQALK, KRRTSFTPQALEILNAHFEKNTHPSGQEMTEIAEKLNYDREVWRVWFCNKRQALK is lower in abundance fitness: -0.321 ± 0.15 for the first, -0.979 ± 0.14 for the second.

First: KRRTSFTPQALEILNAHFEKNTHPSGQEMTEIAEKLNYDREVRRVWFCNKRQALK
Second: KRRTSFTPQALEILNAHFEKNTHPSGQEMTEIAEKLNYDREVCRVWFCNKRQALK
The abundance fitness of the first is lower: -0.935 ± 0.11 for the first, -0.24 ± 0.15 for the second.

First: KRRTSFTPQALEILNAHFEKNTHPSGQEMTEIAEKLNYDREVMRVWFCNKRQALK
Second: KRRTSFTPQALEILNAHFEKNTHPSGQEMTEIAEKLNYDREVLRVWFCNKRQALK
The abundance fitness of the first is lower: -0.931 ± 0.18 for the first, -0.201 ± 0.096 for the second.

Going from KRRTSFTPQALEILNAHFEKNTHPSGQEMTEIAEKLNYDREVKRVWFCNKRQALK to KRRTSFTPQALEILNAHFEKNTHPSGQEMTEIAEKLNYDREVFRVWFCNKRQALK, the abundance fitness rises from -1.17 ± 0.24 to -0.665 ± 0.24.

KRRTSFTPQALEILNAHFEKNTHPSGQEMTEIAEKLNYDREVDRVWFCNKRQALK and KRRTSFTPQALEILNAHFEKNTHPSGQEMTEIAEKLNYDREVTRVWFCNKRQALK are within error of each other in abundance fitness: -0.764 ± 0.31 for the first, -0.579 ± 0.1 for the second.

KRRTSFTPQALEILNAHFEKNTHPSGQEMTEIAEKLNYDREVARVWFCNKRQALK and KRRTSFTPQALEILNAHFEKNTHPSGQEMTEIAEKLNYDREVERVWFCNKRQALK are within error of each other in abundance fitness: -0.614 ± 0.099 for the first, -0.762 ± 0.15 for the second.

KRRTSFTPQALEILNAHFEKNTHPSGQEMTEIAEKLNYDREVYRVWFCNKRQALK and KRRTSFTPQALEILNAHFEKNTHPSGQEMTEIAEKLNYDREVGRVWFCNKRQALK are within error of each other in abundance fitness: -0.908 ± 0.33 for the first, -0.943 ± 0.091 for the second.

Compared with KRRTSFTPQALEILNAHFEKNTHPSGQEMTEIAEKLNYDREVPRVWFCNKRQALK, KRRTSFTPQALEILNAHFEKNTHPSGQEMTEIAEKLNYDREVIRVWFCNKRQALK is higher in abundance fitness: -0.938 ± 0.22 for the first, -0.218 ± 0.13 for the second.

KRRTSFTPQALEILNAHFEKNTHPSGQEMTEIAEKLNYDREVSRVWFCNKRQALK and KRRTSFTPQALEILNAHFEKNTHPSGQEMTEIAEKLNYDREVHRVWFCNKRQALK are within error of each other in abundance fitness: -0.958 ± 0.13 for the first, -1.04 ± 0.41 for the second.

First: KRRTSFTPQALEILNAHFEKNTHPSGQEMTEIAEKLNYDREVQRVWFCNKRQALK
Second: KRRTSFTPQALEILNAHFEKNTHPSGQEMTEIAEKLNYDPEVVRVWFCNKRQALK
The abundance fitness of the first is lower: -1.04 ± 0.26 for the first, -0.003 ± 0.13 for the second.

KRRTSFTPQALEILNAHFEKNTHPSGQEMTEIAEKLNYDEEVVRVWFCNKRQALK and KRRTSFTPQALEILNAHFEKNTHPSGQEMTEIAEKLNYDQEVVRVWFCNKRQALK are within error of each other in abundance fitness: 0.017 ± 0.089 for the first, -0.12 ± 0.12 for the second.

KRRTSFTPQALEILNAHFEKNTHPSGQEMTEIAEKLNYDIEVVRVWFCNKRQALK and KRRTSFTPQALEILNAHFEKNTHPSGQEMTEIAEKLNYDLEVVRVWFCNKRQALK are within error of each other in abundance fitness: -0.029 ± 0.12 for the first, 0.061 ± 0.062 for the second.

KRRTSFTPQALEILNAHFEKNTHPSGQEMTEIAEKLNYDTEVVRVWFCNKRQALK and KRRTSFTPQALEILNAHFEKNTHPSGQEMTEIAEKLNYDSEVVRVWFCNKRQALK are within error of each other in abundance fitness: -0.011 ± 0.091 for the first, -0.034 ± 0.069 for the second.

KRRTSFTPQALEILNAHFEKNTHPSGQEMTEIAEKLNYDAEVVRVWFCNKRQALK and KRRTSFTPQALEILNAHFEKNTHPSGQEMTEIAEKLNYDCEVVRVWFCNKRQALK are within error of each other in abundance fitness: 0.024 ± 0.084 for the first, -0.064 ± 0.1 for the second.

KRRTSFTPQALEILNAHFEKNTHPSGQEMTEIAEKLNYDGEVVRVWFCNKRQALK and KRRTSFTPQALEILNAHFEKNTHPSGQEMTEIAEKLNYDDEVVRVWFCNKRQALK are within error of each other in abundance fitness: 0.069 ± 0.071 for the first, 0.186 ± 0.12 for the second.
